{"source": "patent EP3597215A1", "about": "(dated 2020)", "binders": {"B1": {"name": "P28BB (anti-PSMA chimeric costimulatory receptor) (other)", "chain": "EVQLQQSGPELVKPGTSVRISCKTSGYTFTEYTIHWVKQSHGKSLEWIGNINPNNGGTTYNQKFEDKATLTVDKSSSTAYMELRSLTSEDSAVYYCAAGWNFDYWGQGTTVTVSSGGGGSGGGGSGGGGSDIVMTQSHKFMSTSVGDRVSIICKASQDVGTAVDWYQQKPGQSPKLLIYWASTRHTGVPDRFTGSGSGTDFTLTITNVQSEDLADYFCQQYNSYPLTFGAGTMLDLKRAAAIEVMYPPPYLDNEKSNGTIIHVKGKHLCPSPLFPGPSKPFWVLVVVGGVLACYSLLVTVAFIIFWVRSKRSRLLHSDYMNMTPRRPGPTRKHYQPYAPPRDFAAYRSRFSVVKRGRKKLLYIFKQPFMRPVQTTQEEDGCSCRFPEEEEGGCE"}}, "target": "prostate-specific membrane antigen (PSMA) (UniProt Q04609 1-750, limits assumed)", "sequence (Q04609 whole entry)": "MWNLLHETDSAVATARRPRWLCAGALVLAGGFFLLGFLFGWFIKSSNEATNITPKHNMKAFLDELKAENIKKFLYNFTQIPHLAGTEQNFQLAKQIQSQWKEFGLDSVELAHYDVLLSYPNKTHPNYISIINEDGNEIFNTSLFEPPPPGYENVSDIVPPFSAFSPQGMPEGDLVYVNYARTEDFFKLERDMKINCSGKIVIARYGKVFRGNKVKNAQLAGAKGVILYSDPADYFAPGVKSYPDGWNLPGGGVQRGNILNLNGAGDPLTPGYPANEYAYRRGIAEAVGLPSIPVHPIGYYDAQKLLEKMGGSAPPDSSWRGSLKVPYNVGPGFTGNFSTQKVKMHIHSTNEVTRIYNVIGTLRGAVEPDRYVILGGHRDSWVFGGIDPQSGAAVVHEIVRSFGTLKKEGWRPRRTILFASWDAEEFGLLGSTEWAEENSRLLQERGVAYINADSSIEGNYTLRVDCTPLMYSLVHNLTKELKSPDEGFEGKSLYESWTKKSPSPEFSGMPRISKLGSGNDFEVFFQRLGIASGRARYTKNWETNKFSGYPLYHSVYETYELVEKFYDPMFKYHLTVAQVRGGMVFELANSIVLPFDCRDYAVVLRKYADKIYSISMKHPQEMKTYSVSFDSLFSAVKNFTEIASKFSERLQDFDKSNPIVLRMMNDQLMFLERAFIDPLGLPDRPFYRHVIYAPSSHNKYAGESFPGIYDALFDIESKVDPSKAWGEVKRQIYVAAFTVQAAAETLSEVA", "experiment": "cell-based or functional assay"}
{"binder": "B1", "values": [{"measurement": "long-term T cell proliferation (expansion over 31 days) of 19z1+P28BB T cells on AAPCs expressing CD19 and PSMA", "value": 58, "unit": "fold"}]}
